According to the DeepSol protein solubility set:

Test: soluble on expression in E. coli; label from the status in PepcDB or PDB records

| Sequence | soluble on expression in E. coli |
| --- | --- |
| MKKVLLTAINSQFIHSNLAVRYLKAYAKELDLQIKIREFSINDRLERIFEEIMYEKPDIVGFSCYIWNGEYVDKLSNLIKRVDENIQIFYGGPEVSFDCREVLLNSSADFLIEGEGEESFKEFLKWKLENGFDRKDLKIKGVYSKCQNQILYGGQREALDMNLLEFPYNEEDDLSNKIIYYEASRGCPFNCKYCLSSTIRGVRFLNPDRVKRELKFLADKKVKIVKFVDRTFNANPKFAMEIWKYLMELDTETVFHFEITADIVTEDEIELLKNAPKGRFQFEVGVQSTNNEVLKNVNRYIEFKDIKEIVMKLEEGKNINQHLDLIVGLPGEDFNSFKNSFNDVYSIGPEKLQIGFLKLLKGSSMREEAEKWGMSYSPYHPYEILRTKDISFEEISILKRVDSVVDKYYNTGKFDHIVEFLISDFETPFDFYYKLSEYFYHKGYFNRSISASEYYKVFLDFNKEILKKENDVLEEIVKFEYLKFNKKSWLPPFLTRLNVKEEEQAIKEKLKEENKFDKKLHLEKFSIDIDRYITKKEIVYKEMYHIFN | not soluble |
| MKKVRKLYEGKAKIVYETDEKDKLILEFKDVATAFDGVKKEEIKGKGSLNNEISSLIFEILEDHGIKTHYIKKLSDREMLVWRAERFPVEVVVRNYAAGSFVKRYGVKEGTKLEQPLVEFFMKSDELHDPMVCINHIKVLKLAPAELVPEMEKIALKVNEILKKIFEEKGILLVDFKLEFGRLPSGELAIVDEISPDSMRLWDKSTGENWIKTDSV | soluble |
| MKKYVCTVCGYEYDPAEGDPDNGVKPGTSFDDLPADWVCPVCGAPKSEFEAA | soluble |
| MKLDDLNLFRQVVENGSYTAASRKTLIPVATITRRIQALEDSLDIRLLNRHARKLSLTEAGQKFYDECAPILATLVNTSEYLGEECRGAAGKLKIAAPSNLTKRMIQPILNKFMLLYPDISINLTMSNQPEQLDPTDWDIIFRVGKQRDSSLIARQIGSLEDILVASPSYLEKNSEPTHAQELHKHSLLKGNPLMRWRLTNKDGESVTITDAGRFEASELNVIRMACSNGLGITLMPDIMISQYLEEGSLIRVLSDWSANPRDIYMIYNYKDHQPEKVRLFIDFVSNHIPD | not soluble |
| MKLDIKKDLKNIAWHCTMCGGCCDSPSVSKKDVANIAGFLKIPFDEVVKKYLVNFDGMTGRLKTSKEKCIFLDENNKCKIYRVRPIICRLRPYSVQIKDQNLVLTYDGWFLENCKGLFMGDLDPDEEYYKHAETVLKYLGEEENTPEEFFEKAKKRLKKSKKLEHHHHHH | soluble |
| MKLFISPGACSLAPHIALRETGADFEAVKVDLAVRKTEAGEDFLTVNPSGKVPALTLDSGETLTENPAILLYIADQNPASGLAPAEGSLDRYRLLSRLSFLGSEFHKAFVPLFAPATSDEAKAAAAESVKNHLAALDKELAGRDHYAGNAFSVADIYLYVMLGWPAYVGIDMAAYPALGAYAGKIAQRPAVGAALKAEGLA | soluble |
| MKLKHKRDDKMRFDIKKVLELAEKDFETAWRETRALIKDKHIDNKYPRLKPVYGKPHPVMETIERLRQAYLRMGFEEMINPVIVDEMEIYKQFGPEAMAVLDRCFYLAGLPRPDVGLGNEKVEIIKNLGIDIDEEKKERLREVLHLYKKGAIDGDDLVFEIAKALNVSNEMGLKVLETAFPEFKDLKPESTTLTLRSHMTSGWFITLSSLIKKRKLPLKLFSIDRCFRREQREDRSHLMSYHSASCVVVGEDVSVDDGKVVAEGLLAQFGFTKFKFKPDEKKSKYYTPETQTEVYAYHPKLGEWIEVATFGVYSPIALAKYNIDVPVMNLGLGVERLAMIIYGYEDVRAMVYPQFYEYRLSDRDIAGMIRVDKVPILDEFYNFANELIDICIANKDKESPCSVEVKREFNFNGERRVIKVEIFENEPNKKLLGPSVLNEVYVYDGNIYGIPPTFEGVKEQYIPILKKAKEEGVSTNIRYIDGIIYKLVAKIEEALVSNVDEFKFRVPIVRSLSDINLKIDELALKQIMGENKVIDVRGPVFLNAKVEIK | soluble |
| MKLKNTLLASALLSAAAFSVHAATELTPEQAAALKPYDRIVITGRFNAIGDAVSAVSRRADKEGAASFYVVDTSEFGNSGNWRVVADVYKADAPKADAPKNRVINGIVELPKDQAVQLEPYDTVTVQGFYRSQPEVNDAITKAAKQKGAYAFYIVRQIDANQGGNQRITAFIYKQDAKKRIVQSPDAIPADSEAGRAALAQGGEAAKKVEIPGVATSASPSAEVGRFFETQSSKGGRYTVTLPDGTKVEELNKATAAMMVPFDSVKFTGNYGNMTEISYQVAKRAAKKGAKYYHITRQWQERGNNITISADLYKLEHHHHHH | soluble |
| MKLQKQLLEAVEHKQLRPLDVQFALTVAGDEHPAVTLAAALLSHDAGEGHVCLPLSRLENNEASNPLLATCVSEIGELQNWEECLLASQAVSRGDEPTPMILCGDRLYLNRMWCNERTVARFFNEVNHTIEVDEALLAQTLDKLFPVSDEINWQKVAAAVALTRRISVISGGPGTGKTTTVAKLLAALIQMADGERCRIRLAAPTGKAAARLTESLGKALRQLPLTDEQKKRIPEDASTLHRLLGAQPGSQRLRHHAGNPLHLDVLVVDEASMIDLPMMSRLIDALPDHARVIFLGDRDQLASVEAGAVLGDICAYANAGFTAERARQLSRLTGTHVPAGTGTEAASLRDSLCLLQKSYRFGSDSGIGQLAAAINRGDKTAVKTVFQQDFTDIEKRLLQSGEDYIAMLEEALAGYGRYLDLLQARAEPDLIIQAFNEYQLLCALREGPFGVAGLNERIEQFMQQKRKIHRHPHSRWYEGRPVMIARNDSALGLFNGDIGIALDRGQGTRVWFAMPDGNIKSVQPSRLPEHETTWAMTVHKSQGSEFDHAALILPSQRTPVVTRELVYTAVTRARRRLSLYADERILSAAIATRTERRSGLAALFSSRE | not soluble |
| MKLRHLPLIAAIGLFSTVTLAAGYTGPGATPTTTTVKAALEAADDTPVVLQGTIVKRIKGDIYEFRDATGSMKVEIDDEDFPPMEINDKTRVKLTGEVDRDLVGREIDVEFVEVIK | not soluble |
| MKLSHDCIRDILLFSESLPYNEPAFGDKIFKSDLLKKYSSEEINYAVSKLGDDDAQLIKGYVKFASNKPYMTCISSLTFDGHKYLDNIRDPKIWKESKKISSKLASVSIDIMSEIAAKVITKTLGLD | not soluble |
| MKLSVVMPVYNEKATLRAIYEQVAAVTIDKEIILVDDCSTDGTREIVRELGATGATVVLHDRNMGKGAALRSGFRHVTGDVVLIQDADLEYDPGQYPLLIQPILNGEVDVVYGSRFLSGERSLGMSFWNRAGNRILTYLSNTLTKLELTDVETCYKVFSRDVLERITIEENRFGCEPEITAKLAKLGVRIREVGISYRGRTSAEGKKIGWRDFISSVRCIAKYTLT | soluble |
| MKLVIDAGHGGYDSGAVGNGLVEKNLTLQIARRVRDILTVNYPITIKMTRDSDVFISLSERANIANAFSADYFISFHINSGGGTGFESYIYNALSNSSTAYAKQQKMHTAVNPVLTKYGLRDRGAKKENYAVLRETAMDAILTETAFIDTAFDANLLKNPQFIEDLSQAYANGIAAIFGVAPNPQPPNPQPVPQTKGIAYVLGKNVNLRNGPSTSSSVIRQLNSPESYVVYQESNGWLDLGNGQWVYNDSSYINFVKTSNSDGSPIGVAYIQGMNVNLRSGPSTTSAVIRQLNSPESYLVYINENGWLNLGGNQWVYNDPAYIKYTQY | not soluble |
| MKLYFIINPAAKNGRSVSIWKQLQPLLDREGIAYQAYWTSRKGEGKEIARRIGEESVEPTVIAAVGGDGTVHEVVNGAGSFPHVAIGCIPAGTGNDFVRGFRLARKPKQALQRLLSDVRSGKDLAFDLGRFASSAVPDGVFANSIGCGFDAHIARMANRSKWKGRLNRFGLGSFIYVFYLVRELFRYQPVDLDICVDGQNYSFLKAWLATASNHPYYGGGMRIAPSVRADDGLLHVTVVGPMPRWKILALFLTVFWGGHVRMKEVCVFTGRNVRIRPAAPVLIHADGEDAGEGEVFAWIEPGRLRVIGVKTR | not soluble |
| MKMNEIVASTQFPNTIETITKDLKALGVEKGMTIIVHSSLSSIGWISGGAVAVVEALMKVVTEEGTIIMPTQSSDLSDPKHWSRPPVPEDWWQIIRDNVPAFDSRITPTRGMGEIVECFRTYPNVVRSNHPLGSFAAWGKHAVEITMNHSLSMSFGEESPLRKIYDLDGYVLLIGVGYDSNTSVHLSEVRSGACELIQVGAPIIENGERVWKEFVEMDYESEKFVEIGVEFERKGTVKNGKIGNATCRLMKQRDIVDFGTEWFRKKN | not soluble |
| MKMPEHTDTPKEKILVYIRAEKQKTLHRRQVCINDIASVYCKYSRYEGQIKGIIVDKIRGKKSVISVMKIIEQITEIYDDAQVISIGEPEVLVEYDDNSKNKILEA | soluble |
